Our source for the Km, kcat and kcat/Km values is publication PMC3542407 (Journal of biotechnology, 2012).

One series concerns the target LlAdhA (Lactococcus lactis, UniProt Q9CEN0, Y50F/N110S/I212T/L264V). Nature of the series: NADH consumption at […] nm. The settings on record: read-out: LlAdhA^29C8 / KM; 200 µM NADH; 100 mM Tris pH 7, 1 mM DTT; 25°C.
A further series relates to O=Cc1ccc(CO)o1. Nature of the series: purified protein. The settings on record: 200 µM NADH, 100 mM Tris pH 7, 1 mM DTT, 25°C.
In the next series the test system is CC(C)C=O. Nature of the series: purified protein. The settings on record: 200 µM NADH, 100 mM Tris pH 7, 1 mM DTT, 25°C.
The test system of the next series is CC=O. In words: purified protein. The settings on record: 200 µM NADH, 100 mM Tris pH 7, 1 mM DTT, 25°C.
Another series concerns O=Cc1ccco1. In words: purified protein. The settings on record: 200 µM NADH, 100 mM Tris pH 7, 1 mM DTT, 25°C. The format is biochemical, Lactococcus lactis.
A further series has as its system O=CC=Cc1ccccc1. In words: purified protein. The format is biochemical, Lactococcus lactis. The note with it: 200 µM NADH, 100 mM Tris pH 7, 1 mM DTT, 25°C.

Turning to `O=Cc1ccco1` [2-furaldehyde], at LlAdhA, the Km was 200 µM.

For orientation: kcat means the maximal rate divided by the concentration of active sites. What is called kcat/Km is the second-order rate constant that governs catalysis at low substrate concentration. Consider “LlAdhA (Lactococcus lactis subsp. lactis Il1403)”, for which the Km in the series on O=Cc1ccc(CO)o1 was 22 mM; in the series with CC(C)C=O it was 12 ± 1 mM; in the series with CC=O, 0.4 mM; in the series on O=Cc1ccco1, 0.39 mM; with O=CC=Cc1ccccc1, 0.7 mM. For the same compound, the kcat was 19 s⁻¹ in the series on O=Cc1ccc(CO)o1; 30 ± 1 s⁻¹ in the series on CC(C)C=O; 35 s⁻¹ in the series with CC=O; 22 s⁻¹ in the series on O=Cc1ccco1; 27 s⁻¹ in the series with O=CC=Cc1ccccc1. Moreover, the kcat/Km in the series with O=Cc1ccc(CO)o1 came to 880 M⁻¹ s⁻¹; with CC(C)C=O it was 2800 ± 200 M⁻¹ s⁻¹; with CC=O, 94000 M⁻¹ s⁻¹; in the series on O=Cc1ccco1, 57000 M⁻¹ s⁻¹; in the series on O=CC=Cc1ccccc1, 39000 M⁻¹ s⁻¹.

Take “LlAdhA (Lactococcus lactis subsp. lactis Il1403; I212T/L264V/N110S/Y50F)”: in the series with O=Cc1ccc(CO)o1, the Km is on record as 0.57 mM, the kcat came out at 29 s⁻¹ and the kcat/Km is 51000 M⁻¹ s⁻¹. For the same compound, in the series with CC(C)C=O, the Km was 0.68 ± 0.07 mM, the kcat came to 300 ± 4 s⁻¹ and the catalytic efficiency (kcat/Km) turned out to be 440000 ± 50000 M⁻¹ s⁻¹. Moreover, in the series with CC=O, the Km came out at 0.92 mM, the kcat stood at 58 s⁻¹ and the kcat/Km was found to be 63000 M⁻¹ s⁻¹.

Consider “LlAdhA (Lactococcus lactis subsp. lactis Il1403; I212T/L264V/Y50F)”, for which the Km came out at 0.67 mM in the series on O=Cc1ccc(CO)o1, 1.70 ± 0.01 mM with CC(C)C=O and 0.5 mM in the series on CC=O. Moreover, the kcat in the series on O=Cc1ccc(CO)o1 is 23 s⁻¹; in the series on CC(C)C=O, 140 ± 1 s⁻¹; in the series on CC=O it was 31 s⁻¹. In addition, the figures for the kcat/Km with O=Cc1ccc(CO)o1, with CC(C)C=O and with CC=O were 34000 M⁻¹ s⁻¹, 82000 ± 1000 M⁻¹ s⁻¹ and 57000 M⁻¹ s⁻¹, respectively.

For “LlAdhA (Lactococcus lactis subsp. lactis Il1403; L264V/Y50F)”, in the series on CC(C)C=O, the Km came out at 1.6 ± 0.2 mM, the kcat came out at 50 ± 1 s⁻¹ and the kcat/Km was determined as 32000 ± 4000 M⁻¹ s⁻¹.
